One protein from article PMC4428356, “Endophilin-A1 BAR domain interaction with arachidonyl CoA” (Frontiers in Molecular Biosciences, 2014) can be followed below.

Series [1] deals with the molecule itself. As to the kind of experiment: SAXS; free endophilin-A1-BAR at 2 mg/ml in buffer B (20 mM Bicine pH 9, 100 mM NaCl), 283 K; monodisperse; mass from forward scattering, Porod volume, fit with the crystallographic dimer.
Series [2] deals with the molecule itself. As to the kind of experiment: SAXS; free endophilin-A1-BAR at 3, 4 and 6 mg/ml in buffer B (20 mM Bicine pH 9, 100 mM NaCl), 283 K; volume fractions of dimer, tetramer and a putative helical octamer fitted with OLIGOMER

Values joined by “and” are separate entries in the source; they are usually repeats but may differ in a detail not shown here. Equal entries are not always repeated.

B1: Endophilin-A1-BAR (residues 1-256 of mouse endophilin-A1) (domain or fragment, UniProt Q62420 1-256, looked up)
chain: MSVAGLKKQFHKATQKVSEKVGGAEGTKLDDDFKEMERKVDVTSRAVMEIMTKTIEYLQPNPASRAKLSMINTMSKIRGQEKGPGYPQAEALLAEAMLKFGRELGDDCNFGPALGEVGEAMRELSEVKDSLDMEVKQNFIDPLQNLHDKDLREIQHHLKKLEGRRLDFDYKKKRQGKIPDEELRQALEKFDESKEIAESSMFNLLEMDIEQVSQLSALVQAQLEYHKQAVQILQQVTVRLEERIRQASSQPRREYQ
notes: endophilin-A1, mouse, residues 1-256 (BAR domain with the N-terminal amphipathic helix); calculated mass of the monomer 29 kDa; Dimeric at 2 mg/ml, higher oligomers at higher concentrations; also called endophilin-A1 BAR domain; source: E. coli BL21 codon plus, purified (Ni-chelating sepharose, Superdex 200 gel filtration)
A word on the stoichiometry N: it is a count of units in the complex or per binding partner. B1: the “stoichiometry N” value was 2 in series [1]; 4 and 8 in series [2].
